Laboratory results from the DeepSol protein solubility set.

Assay: soluble on expression in E. coli; label from the status in PepcDB or PDB records
In the case of “MTELPLQFAEPDDDLERVRATLYSLDPDGDRTAGVLRDTLDQLYDGQRTGRWNFDQLHKTEKTHMGTLVEINLHREFQFGDGFETDYEIAGVQVDCKFSMSQGAWMLPPESIGHICLVIWASDQQCAWTAGLVKVIPQFLGTANRDLKRRLTPEGRAQVVKLWPDHGKLQENLLLHIPGDVRDQIFSAKSSRGNQHGQARVNELFRRVHGRLIGRAVIATVAQQDDFMKRVRGSGGARSILRPEGIIILGHQDNDPKVANDLGLPVPRKGQVVAARVVPADEGDQRQTAEIQGRRWAVAVPGDPIVEAPVVPRKSAE”, the “soluble on expression in E. coli” value is reported as “soluble”.
In the case of “MGSDKIHHHHHHVFKYMKKLLIVTTVPETLATILQSQPTFLNEEYEVFLASSTGIQQVADIENVRCFTINMYRGYSPFKDLFSIFKMFYLLLRIKPHIIHSYTPKAGLVCAIAAYFARVPHRIHTFTGLLFPTATGFKHLILKFTDKLVIYLNTHIVCEGYGVWRQFYRFGFSESKFEVIGNGNIAGVDLCYFDPDIVDLSVKSNLISSYKLEGCKVFLYVGRLNVDKGIKELVNAFINLNDNSKLLIVGALDTTAPPDDDTLLKIKVNPNIIDFGFLNDIRPIMSISSCLILPSYREGFPNVVLQAGAMELPCIVTDIPGCNEIISHDVNGWLVKPKCIDALESAMNDFLSLDNAKLLSVKKEASENIKTNFERSFYQKKLLNFYNKVLEND”, the “soluble on expression in E. coli” value is reported as “not soluble”.
With “MLSSKTFLNLVRTSRCRMSSSFAPKPAERTAQHSASIWVEFTTLAAETKAVNLGQGFPDSPAPKFVTDLLENLSKHPELTAAHQYTRGYGHPMLVDILAKMYSHFYNVQVDPMNEVLVTVGAYLSLYYAFLGWVNKGDEVLIIEPAYDCYYPQVKFAGGVPVPVVMNLAEGATSASQFTIDFADMESKINEKTKMLVINNPHNPTGKLFSRHELEKLAEIAKKHNLIVIADEVYEFHVWDKNDMVRFASLPGMYERTISIGSAGKAFSVTGWKLGWAVGPKQLLEPLKAIHQNCVFTCSTPTQMAIAEAFRLDWPKFLSDPENSYLATGLSGELRAKRDKLAKMLEEGNFRPIIPDAGYFMLADYVHLKEGINLPTEEDPDDFVFSRWLCREKKLAVIPPSAFYSARDNKLKNSNMVRLCYFKKDETLDAAEEILKKLGKQ” the “soluble on expression in E. coli” value was “not soluble”.
For “SLHAAKDEVRSRLMPINRAYNVEKLIEAIQYYQEKTNRRVTFEYGLFGGVNDQLEHARELAHLIKGLNCHVNLIPVNHVPERNYVKTAKNDIFKFEKELKRLGINATIRREQGSDIDAACGQLRAKERQVETR”, the “soluble on expression in E. coli” value was “soluble”.
For “MLVCDFKTTCLNWVNVDDVVMGGVSNSAMQLTQDGTAVFAGNLSLENSGGFASVRTVLERRNYADFAGFRIRVKGDGKRYSFRARNDERFDGVVYKFDFETVPDEWMEIDLSFAGFIPSFRGRTLVDVPPLDSSNIVQIGLLVSNKQAGAFWLEIAWIEAYRADTVASSFRLEHHHHHH”, the “soluble on expression in E. coli” value was “soluble”.
For “MTAIAPVITIDGPSGAGKGTLCKAMAEALQWHLLDSGAIYRVLALAALHHHVDVASEDALVPLASHLDVRFVSTNGNLEVILEGEDVSGEIRTQEVANAASQVAAFPRVREALLRRQRAFRELPGLIADGRDMGTVVFPDAPVKIFLDASSEERAHRRMLQLQEKGFSVNFERLLAEIKERDDRDRNRAVAPLVPAADALVLDSTTLSIEQVIEKALQYARQKLALA”, the “soluble on expression in E. coli” value was “soluble”.
In the case of “MSKTVLILGAGVGGLTTADTLRQLLPPEDRIILVDRSFDGTLGLSLLWVLRGWRRPDDVRVRPTAASLPGVEMVTATVAHIDIAAQVVHTDNSVIGYDALVIALGAALNTDAVPGLSDALDADVAGQFYTLDGAAELRAKVEALEHGRIAVAIAGVPFKCPAAPFEAAFLIAAQLGDRYATGTVQIDTFTPDPLPMPVAGPEVGEALVSMLKDHGVGFHPRKALARVDEAARTMHFGDGTSEPFDLLAVVPPHVPSAAARSAGLSESGWIPVDPRTLSTSADNVWAIGDATVLTLPNGKPLPKAAVFAEAQAAVVAHGVARHLGYDVAERHFTGTGACYVETGDHQAAKGDGDFFAPSAPSVTLYPPSREFHEEKVAQELAWLTRWKTLEHHHHHH”, the “soluble on expression in E. coli” value is reported as “not soluble”.
For “MGSDKIHHHHHHMTIDDFYSFITLYKTRNISDAAIALNITQSALSKRLRNMQQELDTALISTRNKRQLTITESGEVFFRYAQTLTAQYQLLQQELLDYRELRRGTIQIGSVPVMAQYGLASKMSQFMQDYPQINFSLAELEGADLLTQLQHQSFDLGILRDVQSQQLNHSQFDAVTLTDDELKVVLPSDHPLAHQTSIQLPDLRPFDVVTLSPGSGVYERISERYQQAGFTPNIRFSTPHIETLLAMIAHTDRVTFLFAKSVAPFMTADFVMRPFTDPIISHLQLVYPHGTLSPAAQRFIHYLTD”, the “soluble on expression in E. coli” value was “not soluble”.
With “MPANARSHAVLTTESKVTIRGQTTIPAPVREALKLKPGQDSIHYEILPGGQVFMCRLGDEQEDHTMNAFLRFLDADIQNNPQKTRPFNIQQGKKLVAGMDVNIDDEIGDDE” the “soluble on expression in E. coli” value was “soluble”.
With “MSLTTYEMARILEQLDESPEKVMYGKLLNELGNQSSERIRSAAKQVPLTVLRDLVYQFQQVIESRKGEQVETMAKELAKQGISAEELLNYLQKR” the “soluble on expression in E. coli” value was “not soluble”.
For “MSLENHWYEVKQTQSEGFFKDLNGSRTKESISYFPKIYYRMKDGLLSIRVQISLGKYQDQLLKLEKKLESGLYCELVEKELKDSYVDYTLLYDMIANRIGIEEAVVENGALRLMKNQVWAYDFLPHMLIAGGTGGGKTYFLLTIIEALLKSDAELFILDPKNADLADLGTIMTHVYSQKEQISACVEDFYERMMVRSRLMKEMPNYKTGENYAYLGLSPNFLVFDEYVAYMEMLTTKESAVILNKLKQIVMLGRQSGFFLILACQRPDAKYLGDGIRDQFNFRVALGRMSELGYSMMFGEVDKIFFMKQIKGRGYVDTGGGVVSEFYTPLVPKGYDFLESTKTIVQNNINEGHHHHHH”, the “soluble on expression in E. coli” value was “soluble”.
For “MGSDKIHHHHHHMFSISHPGDFESLKIIVNEINKLRKINKKLKKESFEVYVGFPEFVGTGRATLYKPNFEDLAKQVNYAKKHNVRFEVVINASCIGGMHLTPKGISYINWIFSQLKNIGVDSVALSDPYLVDLAKNNGLEVNVSCIALVDSLDKALFWDEKEVYAITLDSSINRHFDIIQEIRENVSCKLKILVNEACLYKCPMRIQHFNFFSHANAQNIPALDDYYYNKCINLRIKKKELIIKSPFIRPEDLKYYKGLVDIFKISGRSHPIGWIKRVINAYLNERWDGNLMELLDCPRELEHFYYLDNRALDGAIEYWKSCNKLCSKCNFCKELAEKALKVKY”, the “soluble on expression in E. coli” value was “not soluble”.
For “MAMTKNTRFSPEVRQRAVRMVLESQGEYDSQWATICSIAPKIGCTPETLRVWGLRQHERDTGGGDGGLTTAERQRLKEPERENRELRRSNDILRQASAYFAKAEFDRLWKKLEHHHHHH”, the “soluble on expression in E. coli” value was “soluble”.
For “MGSSHHHHHHSSGLVPRGSHMKNYARISCTSRYVPENCVTNHQLSEMMDTSDEWIHSRTGISERRIVTQENTSDLCHQVAKQLLEKSGKQASEIDFILVATVTPDFNMPSVACQVQGAIGATEAFAFDISAACSGFVYALSMAEKLVLSGRYQTGLVIGGETFSKMLDWTDRSTAVLFGDGAAGVLIEAAETPHFLNEKLQADGQRWAALTSGYTINESPFYQGHKQASKTLQMEGRSIFDFAIKDVSQNILSLVTDETVDYLLLHQANVRIIDKIARKTKISREKFLTNMDKYGNTSAASIPILLDEAVENGTLILGSQQRVVLTGFGGGLTWGSLLLTLEF”, the “soluble on expression in E. coli” value was “soluble”.
In the case of “MKFNIRGENIEVTPALKEYVEKKLSKLERYFDTFPEIKVNLKVYSDKQRVEVTIPFTDLLLRAEETNSDMYAAIDLVVDKIERQIRKHKTKVNRKLREKGSIKTNFILPEAVAVLDEVEEDELELVRTKRFDLKPMDVEEAILQMDMLGHNFFVFTNADTNETNVVYGRKDGKYGLIETKLEHHHHHH”, the “soluble on expression in E. coli” value is reported as “soluble”.
With “GPGSMEPNFFNNSGLMLLCKDGSAVRAIDVLKDAEYVLMYFSAHWCPPCRTFTPMLKSFYETHHAKKKFEVVFMSSDRSEEEMMSYFRESHGDYYCLPYADARSMARVWGDTYKFKTIPTLLVFENANPRKLIARCGREMVIKDPLGNLFPWPDADAQQPAESFIFDYTRKAAIVLGISVLLYSLISRSL” the “soluble on expression in E. coli” value was “not soluble”.
With “MADSTITIRGYVRDNGCSVAAESTNFTVDLMENAAKQFNNIGATTPVVPFRILLSPCGNAVSAVKVGFTGVADSHNANLLALENTVSAASGLGIQLLNEQQNQIPLNAPSSALSWTTLTPGKPNTLNFYARLMATQVPVTAGHINATATFTLEYQDNHHHHHHKQADSTITIRGYVRDN” the “soluble on expression in E. coli” value was “soluble”.
